Laboratory results published in US20240327535A1 (EISAI R AND D MANAGEMENT, published 2024).
Like-named read-outs stand apart in the source and are kept apart here.

Legend:
Assay in all cases: Octet BLI; Fab 200 nM
[1] = biological target: T1, extracellular domain of human BCMA (human, UniProt Q02223 1-54)
T1 construct: amine-linked to Octet AR2G tips; also called hsBCMA; BCMA (human)
T1 sequence: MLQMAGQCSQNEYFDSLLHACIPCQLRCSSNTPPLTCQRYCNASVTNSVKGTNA

[2] = biological target: T2, extracellular domain of rhesus monkey BCMA (rhesus monkey, UniProt F7FFA0 1-53)
T2 construct: extracellular domain; also called RhBCMA
T2 sequence (F7FFA0 entry or part of it): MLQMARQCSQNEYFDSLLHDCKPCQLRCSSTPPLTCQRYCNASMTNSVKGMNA

[3] = biological target: T1, extracellular domain of human BCMA; remark: listed apart in the source
[4] = biological target: T2, extracellular domain of rhesus monkey …; remark: listed apart in the source

Binder	Kd [1] [nM]	Kd [2] [nM]	Kd [3] [nM]	Kd [4] [nM]
AB200-R1a-Fab_VH1 (Fab, V domains shown) VH: QVQLVQSGAEVKKPGSSVKVSCKASGGTFSNYWMHWVRQAPGQGLEWMGATYRGHSETYYNEKFKGRVTITADKSTSTAYMELSSLRSEDTAVYYCARGAIYHGYDVLDDWGQGTLVTVSS VL: DIQMTQSPSSLSASVGDRVTITCSATQDISNYLNWYQQKPGKAPKLLIYFTSNLQSGVPSRFSGSGSGTDFTLTISSLQPEDFATYYCQQYRKLPWTFGQGTKLEIKR	21	32.2		
AB200-R1a-Fab_VH13 (Fab, V domains shown) VH: QVQLVQSGAEVKKPGSSVKVSCKASGGTFSNYWMHWVRQAPGQGLEWMGATYRGHSTTYYAQKYKGRVTITADKSTSTAYMELSSLRSEDTAVYYCARGAIYHGYDVLDNWGQGTLVTVSS VL: DIQMTQSPSSLSASVGDRVTITCSATQDISNYLNWYQQKPGKAPKLLIYFTSNLQSGVPSRFSGSGSGTDFTLTISSLQPEDFATYYCQQYRKLPWTFGQGTKLEIKR	5.38	12.9		
AB200-R1H32-R2Vk40 (Fab, V domains shown) VH: QVQLVQSGAEVKKPGSSVKVSCKASGGTFSNYWMHWVRQAPGQGLEWMGATYRSHSDTYYNQKFKSRVTITADKSTSTAYMELSSLRSEDTAVYYCARGAIYHGYDVIDNWGQGTLVTVSS VL: DIQMTQSPSSLSASVGDRVTITCRASQSISSYINWYQQKPGKAPKLLIYATSNIQSGVPSRFSGSGSGTDFTLTISSLQPEDFATYYCQQYRRIPWTFGQGTKLEIKR			1.03	5.08
AB200-R1H32-R2Vk38 (Fab, V domains shown) VH: QVQLVQSGAEVKKPGSSVKVSCKASGGTFSNYWMHWVRQAPGQGLEWMGATYRSHSDTYYNQKFKSRVTITADKSTSTAYMELSSLRSEDTAVYYCARGAIYHGYDVIDNWGQGTLVTVSS VL: DIQMTQSPSSLSASVGDRVTITCRASQSISSYINWYQQKPGKAPKLLIYATSNLQSGVPSRFSGSGSGTDFTLTISSLQPEDFATYYCQQFRKIPWTFGQGTKLEIKR			1.15	5.35
AB200-R1a-Fab_VH2 (Fab, V domains shown) VH: QVQLVQSGAEVKKPGSSVKVSCKASGGTFSNYWMHWVRQAPGQGLEWMGATYRGHSDTYYNQKFQGRVTITADKSTSTAYMELSSLRSEDTAVYYCARGAVFHGYDVLDNWGQGTLVTVSS VL: DIQMTQSPSSLSASVGDRVTITCSATQDISNYLNWYQQKPGKAPKLLIYFTSNLQSGVPSRFSGSGSGTDFTLTISSLQPEDFATYYCQQYRKLPWTFGQGTKLEIKR	2.85	11.1		
AB200-R1a-Fab_VH41 (Fab, V domains shown) VH: QVQLVQSGAEVKKPGSSVKVSCKASGGTFSNYWMHWVRQAPGQGLEWMGATYRGHSDTYYNEKFKGRVTITADKSTSTAYMELSSLRSEDTAVYYCARGAIYHGYDILNNWGQGTLVTVSS VL: DIQMTQSPSSLSASVGDRVTITCSATQDISNYLNWYQQKPGKAPKLLIYFTSNLQSGVPSRFSGSGSGTDFTLTISSLQPEDFATYYCQQYRKLPWTFGQGTKLEIKR	14.5			
AB200-R1a-Fab_VH21 (Fab, V domains shown) VH: QVQLVQSGAEVKKPGSSVKVSCKASGGTFSNYAMHWVRQAPGQGLEWMGATYRGQSDTYYNQKYKGRVTITADKSTSTAYMELSSLRSEDTAVYYCARGAIYHGYDVLDNWGQGTLVTVSS VL: DIQMTQSPSSLSASVGDRVTITCSATQDISNYLNWYQQKPGKAPKLLIYFTSNLQSGVPSRFSGSGSGTDFTLTISSLQPEDFATYYCQQYRKLPWTFGQGTKLEIKR	5.23	11.1		
AB200-R1H32-R2Vk43 (Fab, V domains shown) VH: QVQLVQSGAEVKKPGSSVKVSCKASGGTFSNYWMHWVRQAPGQGLEWMGATYRSHSDTYYNQKFKSRVTITADKSTSTAYMELSSLRSEDTAVYYCARGAIYHGYDVIDNWGQGTLVTVSS VL: DIQMTQSPSSLSASVGDRVTITCRASQSISSYINWYQQKPGKAPKLLIYATSNIQSGVPSRFSGSGSGTDFTLTISSLQPEDFATYYCQQFRKIPWTFGQGTKLEIKR			1.29	9.2
AB200-R1a-Fab_VH5 (Fab, V domains shown) VH: QVQLVQSGAEVKKPGSSVKVSCKASGGTFSNYWMHWVRQAPGQGLEWMGATYRGHSDSNYNNKFKGRVTITADKSTSTAYMELSSLRSEDTAVYYCARGAIYHGYDVLDNWGQGTLVTVSS VL: DIQMTQSPSSLSASVGDRVTITCSATQDISNYLNWYQQKPGKAPKLLIYFTSNLQSGVPSRFSGSGSGTDFTLTISSLQPEDFATYYCQQYRKLPWTFGQGTKLEIKR	21.1	23.4		
AB200-R1a-Fab_VH4 (Fab, V domains shown) VH: QVQLVQSGAEVKKPGSSVKVSCKATGGTFSNYWMHWVRQAPGQGLEWMGATYRGHSNTYYDQKFKGRVTITADKSTSTAYMELSSLRSEDTAVYYCARGAIYHGYDVLDNWGQGTLVTVSS VL: DIQMTQSPSSLSASVGDRVTITCSATQDISNYLNWYQQKPGKAPKLLIYFTSNLQSGVPSRFSGSGSGTDFTLTISSLQPEDFATYYCQQYRKLPWTFGQGTKLEIKR	5.45	13.7		
AB200-R1a-Fab_VH3 (Fab, V domains shown) VH: QVQLVQSGAEVKKPGSSVKVSCKASGGTFSNYWMSWVRQAPGQGLEWMGATYRGHSQTYYNQKFKGRVTITADKSTSTAYMELSSLRSEDTAVYYCARGAVYHGYDVLDNWGQGTLVTVSS VL: DIQMTQSPSSLSASVGDRVTITCSATQDISNYLNWYQQKPGKAPKLLIYFTSNLQSGVPSRFSGSGSGTDFTLTISSLQPEDFATYYCQQYRKLPWTFGQGTKLEIKR	53.1			
AB200-R1H32-R2Vk37 (Fab, V domains shown) VH: QVQLVQSGAEVKKPGSSVKVSCKASGGTFSNYWMHWVRQAPGQGLEWMGATYRSHSDTYYNQKFKSRVTITADKSTSTAYMELSSLRSEDTAVYYCARGAIYHGYDVIDNWGQGTLVTVSS VL: DIQMTQSPSSLSASVGDRVTITCRASQSISSYINWYQQKPGKAPKLLIYATSNLQSGVPSRFSGSGSGTDFTLTISSLQPEDFATYYCQQYRKIPWSFGQGTKLEIKR			0.85	4.41
AB200-R1a-Fab_VH18 (Fab, V domains shown) VH: QVQLVQSGAEVKKPGSSVKVSCKASGGTFSNYWMHWVRQAPGQGLEWMGATYKGHSDTYYNQKFKGRVTITADESTSTAYMELSSLRSEDTAVYYCARGAIYHGYEVLDNWGQGTLVTVSS VL: DIQMTQSPSSLSASVGDRVTITCSATQDISNYLNWYQQKPGKAPKLLIYFTSNLQSGVPSRFSGSGSGTDFTLTISSLQPEDFATYYCQQYRKLPWTFGQGTKLEIKR	7.73	10.6		
AB200-R1a-Fab_VH17 (Fab, V domains shown) VH: QVQLVQSGAEVKKPGSSVKVSCKASGGTFSSYWMHWVRQAPGQGLEWMGATYRGHSDTYYAQKFKGRVTITADKSTSTAYMELSSLRSEDTAVYYCARGAIYHGYEVLDNWGQGTLVTVSS VL: DIQMTQSPSSLSASVGDRVTITCSATQDISNYLNWYQQKPGKAPKLLIYFTSNLQSGVPSRFSGSGSGTDFTLTISSLQPEDFATYYCQQYRKLPWTFGQGTKLEIKR	82.7	70.2		
AB200-R1a-Fab_VH15 (Fab, V domains shown) VH: QVQLVQSGAEVKKPGSSVKVSCKASGGTYSNYWMHWVRQAPGQGLEWMGATYRGHSDAYYNQRFKGRVTITADKSTSTAYMELSSLRSEDTAVYYCARGAIYHGYDVLDNWGQGTLVTVSS VL: DIQMTQSPSSLSASVGDRVTITCSATQDISNYLNWYQQKPGKAPKLLIYFTSNLQSGVPSRFSGSGSGTDFTLTISSLQPEDFATYYCQQYRKLPWTFGQGTKLEIKR	11.7	17.1		
AB200-R1H32-R2Vk44 (Fab, V domains shown) VH: QVQLVQSGAEVKKPGSSVKVSCKASGGTFSNYWMHWVRQAPGQGLEWMGATYRSHSDTYYNQKFKSRVTITADKSTSTAYMELSSLRSEDTAVYYCARGAIYHGYDVIDNWGQGTLVTVSS VL: DIQMTQSPSSLSASVGDRVTITCRASQSISSYINWYQQKPGKAPKLLIYATSNLQIGVPSRFSGSGSGTDFTLTISSLQPEDFATYYCQQYRRLPWSFGQGTKLEIKR			0.71	3.32
AB200-R1a-Fab_VH51 (Fab, V domains shown) VH: QVQLVQSGAEVKKPGSSVKVSCKASGGTFSNYWMHWVRQAPGQGLEWMGATYRGHSDTNYNQKFKGRVTITADKSTSTAYMELSSLRSEDTAVYYCARGTIYHGFDVLDNWGQGTLVTVSS VL: DIQMTQSPSSLSASVGDRVTITCSATQDISNYLNWYQQKPGKAPKLLIYFTSNLQSGVPSRFSGSGSGTDFTLTISSLQPEDFATYYCQQYRKLPWTFGQGTKLEIKR	18.9			
AB200-R1a-Fab_VH19 (Fab, V domains shown) VH: QVQLVQSGAEVKKPGSSVKVSCKASGGSFSNYWMQWVRQAPGQGLEWMGATYRGHSDTYYNQKFKGRVTITADKSTSTAYMELSSLRSEDTAVYYCARGSIYHGYDVLDNWGQGTLVTVSS VL: DIQMTQSPSSLSASVGDRVTITCSATQDISNYLNWYQQKPGKAPKLLIYFTSNLQSGVPSRFSGSGSGTDFTLTISSLQPEDFATYYCQQYRKLPWTFGQGTKLEIKR	18.5	35.6		
AB200-R1a-Fab_VH20 (Fab, V domains shown) VH: QVQLVQSGAEVKKPGSSVKVSCKASGGTFSNYWMHWVRQAPGQGLEWMGATIRGHSQTYYNQKFQGRVTITADKSTSTAYMELSSLRSEDTAVYYCARGAIYHGYDVLDNWGQGTLVTVSS VL: DIQMTQSPSSLSASVGDRVTITCSATQDISNYLNWYQQKPGKAPKLLIYFTSNLQSGVPSRFSGSGSGTDFTLTISSLQPEDFATYYCQQYRKLPWTFGQGTKLEIKR	10.5	15.1		
AB200-R1a-Fab_VH23 (Fab, V domains shown) VH: QVQLVQSGAEVKKPGSSVKVSCKASGGTFSNYYMHWVRQAPGQGLEWMGATYRGHSDTFYAQKFKGRVTITADKSTSTAYMELSSLRSEDTAVYYCARGAIYHGYDVLDNWGQGTLVTVSS VL: DIQMTQSPSSLSASVGDRVTITCSATQDISNYLNWYQQKPGKAPKLLIYFTSNLQSGVPSRFSGSGSGTDFTLTISSLQPEDFATYYCQQYRKLPWTFGQGTKLEIKR	20.4	19.9		
